Measurements published in patent publication US20260250737A1, “Engineered Luciferases and Luciferin Substrates” (Monod Bio, Inc., priority 2023, published 2026).

Tested on: SmLux
Assay: Computationally generated LgLux variants expressed in E. coli, tested in lysates with SmLux and substrate 1c
Format: biochemical
Protocol: LgLux sequences were designed computationally, and their activity measured as depicted schematically in FIG. 45.
A library of the computationally generated LgLux variants were expressed in E. coli and tested in lysates. 20 uM of SmLux and 50 uM of substrate 1c was used for the screening.
LgLux_4039 sequence is as set forth in SEQ ID NO:2773. MBIO-5103 through MBIO-5124, MBIO-5261 through MBIO-5295, MBIO-5101, and MBIO-5102 (SEQ ID NO:2815-SEQ ID NO:2873, respectively) are computationally generated LgLux. The sequences and activity of these LgLux are shown below in Table 21.
MBIO-5358 and MBIO-5360 through MBIO-5381 (SEQ ID NO:2774-SEQ ID NO:2796, respectively) are computationally generated LgLux.

[1] = Table 22, 20 uM SmLux, 50 uM substrate 1c

| Molecule | Fold change upon SmLux peptide addition [1] | Baseline Signal (Normalized by expression) (Table 22, 50 uM substrate 1c) | Fold change upon SmLux peptide addition (20 uM SmLux, 50 uM substrate 1c) | Baseline Signal (Normalized by expression) (50 uM substrate 1c, before SmLux peptide addition) |
| --- | --- | --- | --- | --- |
| MBIO-5381: computationally generated LgLux, SEQ ID NO 2796 (protein) MTPEERIANVLAFYAALASGDLEAAKALFNPGVTITLWDGTTFTSVEEFRAWFEEQFKTSKDALREIESIEVDGDTVRVLVRLTFVRDGEEKVVDLLQLFKFV | 22.28 | 158.6 |  |  |
| MBIO-5360: computationally generated LgLux, SEQ ID NO 2775 (protein) MTPEELIANVLAFYAALASGDLVAAKALFNPGVTITLWDGTTFTSVEEFRAWFETQFKTSKDALREIESIEVDGDTVRVLVRLTFVRDGEEQVVDLLQLFKFV | 3.64 | 150.2 |  |  |
| MBIO-5374: computationally generated LgLux, SEQ ID NO 2789 (protein) MTPEERIANVRAFYAALASGDLEAAAALFDPGVTITLWDGTTFTSVEEFRAWFEEQFKTSKDALREIESIEVDGDTVRVLVRLTFVRDGEEKVVDLLQLFKFV | 240.47 | 796 |  |  |
| MBIO-5361: computationally generated LgLux, SEQ ID NO 2776 (protein) MTPEELIANVLAFYAALASGDLVAAKALFNSGVTITLWDGATFTSIEKFRAWFDTQFKTSKDALREIESIEVDGDTVRVLVRLTFVSDGEEQVVDLLQLFKFV | 5.17 | 156.4 |  |  |
| MBIO-5373: computationally generated LgLux, SEQ ID NO 2788 (protein) MTPEERIANVLAFYAALASGDLEAAAALFNPGVTITLWDGTTFTSVEEFRAWFEEQFKTSKDALREIESIEVDGDTVRVLVRLTFVRDGEEKVVDLLQLFKFV | 151.01 | 388.2 |  |  |
| MBIO-5377: computationally generated LgLux, SEQ ID NO 2792 (protein) MTPEERIADVRAFYAALASGDLEAAKALFDPGVTITLWDGTTFTSVEEFRAWFEEQFKTSKDALREIESIEVDGDTVRVLVRLSFTRNGQKHTVDLLQQFKFI | 205.44 | 324.4 |  |  |
| MBIO-5378: computationally generated LgLux, SEQ ID NO 2793 (protein) MTPEERIADVRAFYAALASGDLEAAKALFDPGVTITLWDGTTFTSVEEFRAWFEEQFKTSKDALREIESIEVDGDTVRVLVRLTFVRDGEEKVVDLLQQFKFI | 85.83 | 197 |  |  |
| MBIO-5364: computationally generated LgLux, SEQ ID NO 2779 (protein) MTPEERIANVRAFYAALASGDLEAAKALFDPGVTITLWDGTTFTSVEEFRAWFEEQFKTSKDALREIESIEVDGDTVRVLVRLSFTRNGQKHTVDLLQLFKFV | 172.59 | 376.8 |  |  |
| MBIO-5371: computationally generated LgLux, SEQ ID NO 2786 (protein) MTPEERIADVLAFYAALASGDLEAAKALFNPGVTITLWDGTTFTSVEEFRAWFEEQFKTSKDALREIESIEVDGDTVRVLVRLSFTRNGQKHTVDLLQQFKFI | 48.58 | 234.6 |  |  |
| MBIO-5362: computationally generated LgLux, SEQ ID NO 2777 (protein) MTPEERIANVLAFYAALASGDLEAAAALFNPGVTITLWDGTTFTSVEEFRAWFEEQFKTSKDALREIESIEVDGDTVRVLVRLSFTRNGQKHTVDLLQLFKFV | 27.24 | 906.4 |  |  |
| MBIO-5379: computationally generated LgLux, SEQ ID NO 2794 (protein) MTPEERIADVRAFYAALASGDLEAAKALFDPGVTITLWDGTTFTSVEEFRAWFEEQFKTSKDALREIESIEVDGDTVRVLVRLTFVRDGEEKVVDLLQLFKFI | 176.25 | 338.4 |  |  |
| MBIO-5372: computationally generated LgLux, SEQ ID NO 2787 (protein) MTPEERIADVLAFYAALASGDLEAAKALFNPGVTITLWDGTTFTSVEEFRAWFEEQFKTSKDALREIESIEVDGDTVRVLVRLTFVRDGEEKVVDLLQQFKFI | 20.86 | 210.6 |  |  |
| MBIO-5363: computationally generated LgLux, SEQ ID NO 2778 (protein) MTPEERIANVLAFYAALASGDLEAAKALFNPGVTITLWDGTTFTSVEEFRAWFEEQFKTSKDALREIESIEVDGDTVRVLVRLSFTRNGQKHTVDLLQLFKFV | 32.23 | 339.2 |  |  |
| MBIO-5380: computationally generated LgLux, SEQ ID NO 2795 (protein) MTPEERIADVRAFYAALASGDLEAAKALFDPGVTITLWDGTTFTSVEEFRAWFEEQFKTSKDALREIESIEVDGDTVRVLVRLTFVRDGEEKVVDLLQLFKFV | 157.38 | 322.6 |  |  |
| MBIO-5375: computationally generated LgLux, SEQ ID NO 2790 (protein) MTPEERIADVRAFYAALASGDLEAAKALFDPGVTITLWDGTTFTSVEEFRAWFEEQFKTSKDALREIESIEVDGDTVRVLVRLSFTRNGQKHTVDLLQLFKFV | 98.41 | 207.6 |  |  |
| MBIO-5358: computationally generated LgLux, SEQ ID NO 2774 (protein) MSEEQIRQDLLRFYEALDSGDAITAASLFNPGVTITLWDGTTFTSVEEFREWFESQFSTSKDALREISSLEVRGDTVEVTVRLSFTRNGQKHTVDLLQQFKFI | 243.66 | 440.6 |  |  |
| 5124 (protein) MTPEEIIANVRAFYAALASGDLEAAKALFDPGTTITLWDGTTFTSLEEFLAWFEKQFDASKDAKREIVSIEVEGDTVRVLVRLTYTKDGKEQVVDLLQLLKFV |  |  | 1.07 | 187.6 |
| MBIO-5365: computationally generated LgLux, SEQ ID NO 2780 (protein) MTPEELRQNLLRFYEALDSGDAVAAASLFNPGVTITLWDGTTFTSVEEFREWFETQFKTSKDALREIESLEVDGDTVRVTVRLTFTRDGEEQVVDLLQLFKFV | 359.8 | 1452.6 |  |  |
| MBIO-5367: computationally generated LgLux, SEQ ID NO 2782 (protein) MTPEELRQNLLRFYEALDSGDAVAAASLFNSGVTITLWDGATFTSIEKFREWFDTQFKTSKDALREIESLEVDGDTVRVTVRLTFTSDGEEQVVDLLQLFKFV | 6.08 | 231.6 |  |  |
| MBIO-5366: computationally generated LgLux, SEQ ID NO 2781 (protein) MTPEELRQNLLRFYEALDSGDAVAAKSLFNPGVTITLWDGTTFTSVEEFREWFETQFKTSKDALREIESLEVDGDTVRVTVRLTFTRDGEEQVVDLLQLFKFV | 32.61 | 931.2 |  |  |
| MBIO-5369: computationally generated LgLux, SEQ ID NO 2784 (protein) MTPEEIRQNLLRFYEALDSGDAEAAKSLFNPGVTITLWDGTTFTSVEEFREWFEEQFKTSKDALREIESLEVDGDTVRVTVRLTFTRDGEEKVVDLLQLFKFV | 289.49 | 760 |  |  |
| MBIO-5370: computationally generated LgLux, SEQ ID NO 2785 (protein) MTPEEIRQNLRRFYEALDSGDAEAAKSLFDPGVTITLWDGTTFTSVEEFREWFEEQFKTSKDALREIESLEVDGDTVRVTVRLTFTRDGEEKVVDLLQLFKFV | 390.25 | 4567 |  |  |
| MBIO-5368: computationally generated LgLux, SEQ ID NO 2783 (protein) MTPEELRQNLLRFYEALDSGDAVAAKSLFNSGVTITLWDGATFTSIEKFREWFDTQFKTSKDALREIESLEVDGDTVRVTVRLTFTSDGEEQVVDLLQLFKFV | 4.95 | 366.8 |  |  |
